Test results published in patent US20140286976A1 (ARGEN X B V, published 2014).

Biological target: T1, Human c-Met ECD (Flag and strep tag) (human, UniProt P08581 25-932)
T1 construct: also called HMet; Human Wt c-Met; not shown: Flag and strep tag
Test: ELISA; mAb immobilized (2 µg/ml), c-Met protein added, streptavidin-HRP

T1 sequence (P08581 25-932): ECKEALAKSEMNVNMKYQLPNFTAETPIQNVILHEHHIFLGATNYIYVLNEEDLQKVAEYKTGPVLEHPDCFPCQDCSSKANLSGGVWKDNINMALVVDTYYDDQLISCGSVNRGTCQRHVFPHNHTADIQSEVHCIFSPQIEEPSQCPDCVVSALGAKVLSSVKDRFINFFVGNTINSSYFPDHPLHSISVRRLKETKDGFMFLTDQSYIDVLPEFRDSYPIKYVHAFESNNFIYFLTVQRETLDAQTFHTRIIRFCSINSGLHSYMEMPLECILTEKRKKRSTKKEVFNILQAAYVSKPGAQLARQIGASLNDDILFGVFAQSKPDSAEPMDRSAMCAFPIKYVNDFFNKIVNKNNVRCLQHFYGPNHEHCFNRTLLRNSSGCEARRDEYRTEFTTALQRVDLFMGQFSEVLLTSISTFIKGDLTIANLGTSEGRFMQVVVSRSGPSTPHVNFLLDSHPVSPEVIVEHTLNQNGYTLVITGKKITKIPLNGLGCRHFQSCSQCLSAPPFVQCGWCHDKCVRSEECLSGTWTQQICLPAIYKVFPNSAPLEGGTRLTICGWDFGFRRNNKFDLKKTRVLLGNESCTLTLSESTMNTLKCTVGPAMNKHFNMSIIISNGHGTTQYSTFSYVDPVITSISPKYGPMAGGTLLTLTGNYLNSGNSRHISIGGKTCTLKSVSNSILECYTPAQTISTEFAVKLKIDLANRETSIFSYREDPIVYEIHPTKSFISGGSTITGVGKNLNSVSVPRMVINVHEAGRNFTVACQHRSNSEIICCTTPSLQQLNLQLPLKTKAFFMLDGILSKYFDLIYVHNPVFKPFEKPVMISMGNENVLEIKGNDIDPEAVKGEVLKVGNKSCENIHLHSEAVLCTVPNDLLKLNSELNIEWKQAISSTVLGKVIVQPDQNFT

EC50: 0.045 µg/mL
B1: 48A2 (antibody, V domains shown)
VH: EVQLVQPGVELRNPGASVKVSCKASGYIFTMNSIDWVRQAPGQGLEWMGRIDPEDGGTKYAQKFQGRVTFTADTSTSTAYVELNSLRSEDTAVYYCARVDDYYLGYDYWGQGTQVTVSS
VL: DIVMTQTPTSVTASAGDKVTINCKSSQSVLFSSNQKNYLAWYQQRLGQSPRLLIYWASIRESGVPDRFSGSGSATDFTLTISNFQPEDAAVYYCQQGYSFPYSFGSGTRLEIR
